Test results taken from the supplement of paper PMC10567573.

B1: SNAP91 (parent)
chain: FSTDAFSSPPQGASPVPESSLTAD

Variants of: B1
Experiment: protein stability index of a GFP-peptide fusion (GPS, HEK-293T) (PSI 1-6); higher = more stable
Settings: c terminus: a fixed tail appended
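Also: lentivirally expressed fusions sorted by FACS into six bins by GFP to DsRed ratio, PSI derived from sequencing read proportions per bin multiplied by bin number.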

Protein stability index of substitutions, site by site:
S2: M 3.32; E 5.52; L 3.34; A 2.09; P 3; G 2.8; K 5.08; I 1.64; H 2.15; F 3.96; Q 2.58; D 5.7; V 3.15; N 5.09; R 5.05; Y 4.7; T 1.67; W 3.48; C 2.46
S7: T 3.33; M 2.84; D 5.47; C 2.18; Q 3.77; Y 2.9; I 2.66; V 2.32; H 2.51; P 3.56; A 2.98; K 2.96; N 4.22; W 3.15; E 5.35; G 3.89; R 1.62; L 2.96; F 1.99
A5: W 1.92; L 3.55; Q 4.88; Y 2.33; G 4.76; F 2.03; C 4.07; N 5.16; I 3.79; S 4.68; T 4.96; M 4.56; H 4.59; K 4.71; E 4.8; V 4.18; P 4.94; R 4.71; D 5.61
F1: Y 3.31
P9: W 2.24; L 2.65; A 2.52; V 2.74; G 2.76; S 3.74; R 2.91; E 4.35; F 2.46; Y 2.45; D 3.96; C 2.61; N 3.13; K 2.92; I 2.43; M 2.16; T 2.85; Q 3.02; H 2.89
P10: K 3.16; E 3.23; R 2.55; H 2.29; D 3.61; N 2.64; I 2.42; Q 3.24; M 2.29; F 2.28; A 3.09; G 2.69; C 2.8; L 3.38
T3: F 4.6; Y 4.46; A 5.12; D 5.08; Q 5.5; G 4.47; H 5.4; P 4.49; R 4.91; W 4.38; L 4.93; I 4.4; S 2.95; M 3.37; K 4.93; C 4.3; E 5.08; N 4.84; V 4.56
F6: H 5.62; S 5.44; V 5.59; T 5.61; R 5.49; L 5.55; G 5.48; Q 5.63; K 5.38; E 5.69; I 5.43; N 5.31; D 5.44; C 5.09; M 5.53; Y 3.26; A 5.57; P 5.53; W 1.86
D4: G 2.71; E 4.2; M 2.92; W 1.67; S 2.82; R 2.37; F 3.06; V 3.28; A 3.25; P 4.29; T 2.21; K 2.94; H 3.44; Y 3.02; L 2.63; Q 3.28; N 2.66; I 3.45; C 2.76
S8: A 3.31; V 3.16; N 2.75; H 2.75; M 3.02; D 4.93; Y 3.39; E 4.58; R 2.87; I 2.62; T 3.33; G 3.67; P 4; Q 2.86; K 2.38; F 3.22; W 3.44; C 2.75; L 3.29
